The target in assay [1] is human αV on parental A375M cells (αVβ3 and αVβ5) (human) (UniProt P06756). Briefly: cell-based or functional assay.
Assay [2] addresses α4β1 integrin on J6.77 cells (UniProt P13612). Briefly: cell-based or functional assay.
Assay [3] has as its target cynomolgus αVβ6 on cells (cynomolgus). Nature of the assay: FACS, transiently transfected HEK-293 cells. (In general: Flow cytometry measures light scatter and fluorescence of single cells or particles in a stream.)
The target in assay [4] is cynomolgus β6 on transfected HEK-293 cells (cynomolgus). Nature of the assay: FACS, transiently transfected HEK-293 cells.
The target in assay [5] is mouse αVβ6 on cells (mouse) (UniProt P43406). Briefly: FACS, K562 cells expressing mouse αVβ6 (parental 46).
Chain of mouse αVβ6 on cells (mouse) (P43406 31-1044, chain 1 of 2): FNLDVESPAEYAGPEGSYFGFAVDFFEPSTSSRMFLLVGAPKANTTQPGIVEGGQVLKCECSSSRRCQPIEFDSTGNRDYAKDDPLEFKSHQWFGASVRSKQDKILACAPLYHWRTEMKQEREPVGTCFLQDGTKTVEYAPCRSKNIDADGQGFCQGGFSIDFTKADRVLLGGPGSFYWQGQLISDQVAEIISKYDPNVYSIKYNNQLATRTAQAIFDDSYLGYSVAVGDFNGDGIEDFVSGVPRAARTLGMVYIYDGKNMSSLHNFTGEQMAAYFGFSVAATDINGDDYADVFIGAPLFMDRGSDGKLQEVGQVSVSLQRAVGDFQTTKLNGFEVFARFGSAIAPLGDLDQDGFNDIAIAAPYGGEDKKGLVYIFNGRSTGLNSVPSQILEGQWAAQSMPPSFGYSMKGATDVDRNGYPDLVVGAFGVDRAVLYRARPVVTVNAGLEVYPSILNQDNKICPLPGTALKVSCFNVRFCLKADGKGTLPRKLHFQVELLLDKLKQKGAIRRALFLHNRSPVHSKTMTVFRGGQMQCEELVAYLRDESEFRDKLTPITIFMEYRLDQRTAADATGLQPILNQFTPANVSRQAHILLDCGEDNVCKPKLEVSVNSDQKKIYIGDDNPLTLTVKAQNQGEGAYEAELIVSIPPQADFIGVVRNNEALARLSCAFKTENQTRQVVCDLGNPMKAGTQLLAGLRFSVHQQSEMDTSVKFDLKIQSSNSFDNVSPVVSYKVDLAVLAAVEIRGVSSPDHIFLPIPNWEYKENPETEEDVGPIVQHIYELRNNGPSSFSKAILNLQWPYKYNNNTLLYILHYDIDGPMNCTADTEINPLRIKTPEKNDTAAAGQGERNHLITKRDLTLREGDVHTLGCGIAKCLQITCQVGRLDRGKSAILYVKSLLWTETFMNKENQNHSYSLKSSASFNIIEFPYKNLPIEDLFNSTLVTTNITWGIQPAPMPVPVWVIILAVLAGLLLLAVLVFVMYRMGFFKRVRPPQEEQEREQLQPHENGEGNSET
Chain of mouse αVβ6 on cells (mouse) (Q9Z0T9 22-787, chain 2 of 2, further chain): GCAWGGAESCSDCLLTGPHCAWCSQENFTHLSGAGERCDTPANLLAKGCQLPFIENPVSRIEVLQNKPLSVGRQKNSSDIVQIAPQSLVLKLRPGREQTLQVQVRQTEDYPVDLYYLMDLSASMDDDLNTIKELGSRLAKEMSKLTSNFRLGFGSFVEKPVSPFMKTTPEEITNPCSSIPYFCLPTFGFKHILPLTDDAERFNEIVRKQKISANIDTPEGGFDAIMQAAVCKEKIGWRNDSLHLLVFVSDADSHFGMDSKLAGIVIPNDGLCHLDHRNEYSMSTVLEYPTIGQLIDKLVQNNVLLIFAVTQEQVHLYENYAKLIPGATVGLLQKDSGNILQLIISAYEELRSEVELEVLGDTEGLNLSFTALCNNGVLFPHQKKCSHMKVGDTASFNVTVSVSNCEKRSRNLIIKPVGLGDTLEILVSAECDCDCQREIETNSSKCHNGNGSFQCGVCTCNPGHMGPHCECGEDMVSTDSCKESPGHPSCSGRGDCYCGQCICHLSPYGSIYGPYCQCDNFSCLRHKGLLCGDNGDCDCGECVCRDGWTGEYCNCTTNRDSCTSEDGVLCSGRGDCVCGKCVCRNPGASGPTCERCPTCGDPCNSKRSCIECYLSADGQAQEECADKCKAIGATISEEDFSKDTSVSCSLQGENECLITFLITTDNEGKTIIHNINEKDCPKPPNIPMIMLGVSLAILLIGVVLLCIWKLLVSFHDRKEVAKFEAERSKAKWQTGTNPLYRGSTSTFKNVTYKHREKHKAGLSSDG
Assay [6] deals with cynomolgus αVβ6 on cells (cynomolgus). Briefly: FACS, K562 cells expressing cynomolgus αVβ6 (parental 46).
For assay [7], the target named is mouse αVβ6 on cells (mouse) (UniProt P43406). Nature of the assay: FACS, K562 cells expressing mouse αVβ6 (parental 12).
Assay [8] addresses cynomolgus αVβ6 on cells (cynomolgus). Nature of the assay: FACS, K562 cells expressing cynomolgus αVβ6 (parental 12).
Assay [9] has as its target α5β1 integrin on K562 cells (UniProt P08648). Briefly: cell-based or functional assay.
Assay [10] has as its target human αV on parental A375M cells (αVβ3 and αVβ5) (human) (UniProt P06756). Nature of the assay: FACS, parental A375M cells, day 1.
Assay [11] shares this target. Nature of the assay: FACS, parental A375M cells, day 2.
Assay [12] addresses cynomolgus αVβ6 on cells (cynomolgus). Briefly: FACS, HEK-293 cells transfected with cynomolgus αV and β6, day 1.
Assay [13] has the same target. Nature of the assay: FACS, HEK-293 cells transfected with cynomolgus αV and β6, day 2.
The target of assay [14] is human αVβ6 integrin on cells (human) (UniProt P06756). Briefly: cell-based or functional assay.
Chain of human αVβ6 integrin on cells (human) (P06756 31-1048, chain 1 of 2): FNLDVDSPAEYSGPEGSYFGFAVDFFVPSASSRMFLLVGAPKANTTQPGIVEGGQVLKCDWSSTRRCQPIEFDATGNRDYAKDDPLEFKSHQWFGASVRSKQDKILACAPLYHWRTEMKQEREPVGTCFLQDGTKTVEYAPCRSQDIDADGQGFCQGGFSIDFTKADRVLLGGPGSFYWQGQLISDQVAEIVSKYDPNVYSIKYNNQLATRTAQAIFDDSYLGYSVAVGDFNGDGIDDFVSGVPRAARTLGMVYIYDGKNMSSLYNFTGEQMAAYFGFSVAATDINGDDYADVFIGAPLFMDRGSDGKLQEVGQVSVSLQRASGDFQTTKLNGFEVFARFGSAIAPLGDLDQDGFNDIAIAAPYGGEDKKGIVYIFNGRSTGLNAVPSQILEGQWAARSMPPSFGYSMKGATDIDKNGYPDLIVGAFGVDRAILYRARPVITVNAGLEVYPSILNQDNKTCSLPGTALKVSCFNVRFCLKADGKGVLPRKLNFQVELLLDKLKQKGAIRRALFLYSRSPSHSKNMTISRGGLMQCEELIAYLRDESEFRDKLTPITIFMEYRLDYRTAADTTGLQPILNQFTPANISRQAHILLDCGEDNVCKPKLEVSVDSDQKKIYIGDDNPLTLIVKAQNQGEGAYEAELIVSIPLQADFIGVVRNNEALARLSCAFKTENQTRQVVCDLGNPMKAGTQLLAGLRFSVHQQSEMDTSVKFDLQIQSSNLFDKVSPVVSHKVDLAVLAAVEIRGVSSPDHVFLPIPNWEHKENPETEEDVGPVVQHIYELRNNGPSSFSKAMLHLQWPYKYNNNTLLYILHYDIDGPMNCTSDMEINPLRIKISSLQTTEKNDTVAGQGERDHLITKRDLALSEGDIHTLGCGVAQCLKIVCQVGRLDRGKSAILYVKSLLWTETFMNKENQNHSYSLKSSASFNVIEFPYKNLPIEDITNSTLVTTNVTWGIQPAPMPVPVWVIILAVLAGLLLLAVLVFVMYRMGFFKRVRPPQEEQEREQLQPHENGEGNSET
Chain of human αVβ6 integrin on cells (human) (P18564 22-788, chain 2 of 2, further chain): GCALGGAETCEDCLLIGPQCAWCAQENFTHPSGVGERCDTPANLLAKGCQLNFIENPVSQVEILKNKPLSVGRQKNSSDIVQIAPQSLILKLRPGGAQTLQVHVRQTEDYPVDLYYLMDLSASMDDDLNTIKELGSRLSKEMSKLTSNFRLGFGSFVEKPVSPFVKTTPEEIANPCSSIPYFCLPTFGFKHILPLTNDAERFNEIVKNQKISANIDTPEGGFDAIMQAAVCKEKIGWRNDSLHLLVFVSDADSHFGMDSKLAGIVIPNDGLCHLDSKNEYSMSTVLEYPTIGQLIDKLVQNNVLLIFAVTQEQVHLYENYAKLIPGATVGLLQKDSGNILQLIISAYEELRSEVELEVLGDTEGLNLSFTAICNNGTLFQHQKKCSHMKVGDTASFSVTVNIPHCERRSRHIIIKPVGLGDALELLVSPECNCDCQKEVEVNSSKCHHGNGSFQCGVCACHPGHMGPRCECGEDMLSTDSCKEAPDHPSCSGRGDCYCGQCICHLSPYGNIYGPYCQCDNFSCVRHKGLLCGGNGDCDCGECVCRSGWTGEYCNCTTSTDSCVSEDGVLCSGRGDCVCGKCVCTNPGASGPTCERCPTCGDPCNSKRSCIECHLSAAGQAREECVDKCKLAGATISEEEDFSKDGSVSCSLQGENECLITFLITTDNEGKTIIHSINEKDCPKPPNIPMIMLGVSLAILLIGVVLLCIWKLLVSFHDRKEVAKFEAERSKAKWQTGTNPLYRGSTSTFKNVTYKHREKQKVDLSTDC
The target in a further assay is soluble αVβ6 (human) (UniProt P06756). Briefly: ELISA, 1 ug/mL on coated soluble αVβ6. (In general: In an ELISA, binding on a coated surface is turned into a signal by an enzyme label.)
For assay [15], the target named is human αV on parental A375M cells (αVβ3 and αVβ5) (human) (UniProt P06756). Briefly: FACS, 1 ug/ml, parental A375M cells, day 1.
Assay [16] has the same target. Briefly: FACS, 1 ug/ml, parental A375M cells, day 2.
Assay [17] has as its target mouse αVβ6 on cells (mouse) (UniProt P43406). Briefly: FACS, K562 cells expressing mouse αVβ6 (parental 15).
The target of assay [18] is human αVβ6 integrin on cells (human) (UniProt P06756). Briefly: FMAT, 1 ug/mL on HEK 293 cells stably overexpressing αVβ6.
Assay [19] has as its target cynomolgus αVβ6 on cells (cynomolgus). Nature of the assay: FACS, K562 cells expressing cynomolgus αVβ6 (parental 15).
Assay [20] shares this target. Nature of the assay: FACS, 1 ug/ml, HEK-293 cells transfected with cynomolgus αV and β6, day 1.
The target is the same in assay [21]. Briefly: FACS, 1 ug/ml, HEK-293 cells transfected with cynomolgus αV and β6, day 2.
Assay [22] has as its target mouse αVβ6 on cells (mouse) (UniProt P43406). Nature of the assay: FACS, K562 cells expressing mouse αVβ6 (parental 23).
The target in assay [23] is cynomolgus αVβ6 on cells (cynomolgus). Briefly: FACS, K562 cells expressing cynomolgus αVβ6 (parental 23).

These results are taken from US20150166663A1.

On to Mouse IgG Control (antibody), for which the Percent Inhibition, adhesion of A375M cells to osteopontin peptide, 5 µg/ml in [1] worked out at 5%.

For Human IgG1 (antibody), the Percent Inhibition, adhesion of J6.77 cells to CS-1 peptide of fibronectin, 5 ug/ml in assay [2] is 26%. Also, the Percent Inhibition, adhesion of J6.77 cells to CS-1 peptide of fibronectin, 5 µg/ml in [2] is -6%. The percent of cells shifted in assay [3] is 0%; in assay [4], 1%. For the same substance, the Geometric Mean Shift (arbitrary units) is 108 in assay [5] and 54 in [6].

As to Human IgG2 (antibody), in [2], the Percent Inhibition, adhesion of J6.77 cells to CS-1 peptide of fibronectin, 5 ug/ml was found to be 13% and the Percent Inhibition, adhesion of J6.77 cells to CS-1 peptide of fibronectin, 5 µg/ml is -9%.

Consider Mouse IgG1 (antibody), for which the Geometric Mean Shift (arbitrary units) in [7] is 20; in [8], 13.

For the substance Human IgG Isotype Control (antibody), in assay [1], the Percent Inhibition, adhesion of A375M cells to osteopontin peptide, 5 µg/ml amounted to 3%. In assay [9], the % Inhibition, adhesion of K562 cells to fibronectin was -12% and the Percent Inhibition, adhesion of K562 cells to FN9-10 peptide of fibronectin, 5 µg/ml was 11%. For the same substance, in assay [10], the A375M % Shifted Cells was determined as 5% and the A375M GeoMean worked out at 1.66. In [11], the A375M % Shifted Cells is 1% and the A375M GeoMean worked out at 7.23. Moreover, in assay [12], the Mac AVB6 % Cells Shifted stood at 1% and the Mac AVB6 GeoMean amounted to 9.54. In [13], the Mac AVB6 % Cells Shifted was found to be 0% and the Mac AVB6 GeoMean turned out to be 7.39.

As to “murine αVβ6 antibody (Cat#MAB2077z, Chemicon)”, in assay [14], the Estimated IC50, adhesion of HT29 cells to TGFβLAP, n = 1 was 0.226 µg/mL; the Estimated IC50, adhesion of HT29 cells to TGFβLAP, n = 2 is 0.185 µg/mL; the Estimated IC50, adhesion of HT29 cells to TGFβLAP, n = 3 was 0.286 µg/mL. In the assay with soluble αVβ6 (human), this substance returned an ELISA OD of 6 OD. Further, in assay [15], the A375M % Shifted Cells is 30% and the A375M GeoMean was determined as 2.03. In assay [16], the A375M % Shifted Cells stood at 5% and the A375M GeoMean is 15.4. Moreover, in assay [3], the percent of cells shifted stood at 20%. Besides, in assay [4], the percent of cells shifted stood at 5%. In addition, in [17], the Geometric Mean Shift (arbitrary units) was 122. The same substance returned an FMAT FL1XCount in assay [18] of 44200. The Geometric Mean Shift (arbitrary units) in assay [19] is 84. Also, in [20], the Mac AVB6 % Cells Shifted was found to be 42% and the Mac AVB6 GeoMean amounted to 55.5. Further, in assay [21], the Mac AVB6 % Cells Shifted came to 11% and the Mac AVB6 GeoMean was 28.1.

With “Mouse IgG2 with Murine Secondary Antibody”, in [10], the A375M % Shifted Cells stood at 4% and the A375M GeoMean worked out at 1.67. Besides, in [11], the A375M % Shifted Cells stood at 3% and the A375M GeoMean is 11.2. Besides, in assay [12], the Mac AVB6 % Cells Shifted was 1% and the Mac AVB6 GeoMean was 8.85. Moreover, in assay [13], the Mac AVB6 % Cells Shifted came out at 0% and the Mac AVB6 GeoMean stood at 11.2.

As for Mouse IgG2a (antibody), the Geometric Mean Shift (arbitrary units) in assay [22] was 36; in assay [23], 25.

Substance Human IgG4 (antibody) returned a Percent Inhibition, adhesion of J6.77 cells to CS-1 peptide of fibronectin, 5 ug/ml in assay [2] of 15%.
